Reference: article PMC3466262, “Crystal Structure of ATV^ORF273, a New Fold for a Thermo- and Acido-Stable Protein from the Acidianus Two-Tailed Virus” (PLoS ONE, 2012)

Legend:
[1] = target: the molecule itself; assay: SEC-MALS; Shodex KW803 column, 20 mM Hepes pH 7.4, 100 mM NaCl; protein injected at 4 mg/mL (121 uM)
[2] = target: the molecule itself; assay: SEC-MALS; Shodex KW803 column, 20 mM citrate buffer pH 3.6, 150 mM NaCl; protein injected at 4 mg/mL (121 uM)

B1: ATV^ORF273, virion protein of the Acidianus two-tailed virus (recombinant, C-terminal hexa-histidine tag) (natural protein)
chain: MGEKITEEREFQSISEIPEEEIDATNDEEKLADIVENEIEKEIRKSKTRKCKTIENFYYYILRDGKIYPASDYDIEVEKGKRSANDIYAFVETDVTRDFDEFLFDIDYGLPSISDILKFYLEKAGFRIANEVPTPNLKYYIHAVVEFGEDRPQYLAVNIYDIDSLARALRIPQIVEQKLGNKPRTITADEFNDIERIVAEEQPILAGYTYDEALRIPYHYYVDHNNSFKDDALKIAHAYLQLFPTPYQVCYEWKARWFNKIDCLKLERLKPSS
notes: ATV ORF273, virion protein of Acidianus two-tailed virus, UniProt Q3V4T6; native molar mass 32154 Da, recombinant protein 32977 Da; The printed masses (32154 Da native, 32977 Da recombinant) fit the whole ORF plus a His6 tag that is still on the protein; no cleavage of the tag is described; Oligomeric state depends on pH: tetramer at pH 7.4 and 8.5, dimer at pH 3.6; The models hold residues …
Q: Which “stoichiometry N” value [1] does the source give for B1 here?
A: Its value is 4.

Q: And the “stoichiometry N” value [2]?
A: Its value is 2.
